Assay results published in article PMC6868236.

Target: Tra1 (S. pombe) (UniProt Q9HFE8)
Assay: Spt7-TAP tandem affinity purification of SAGA, LC-MS/MS label-free quantification (LFQ)
Conditions: parent: 1.0

Sequence of UniProt Q9HFE8 (Q9HFE8 whole entry): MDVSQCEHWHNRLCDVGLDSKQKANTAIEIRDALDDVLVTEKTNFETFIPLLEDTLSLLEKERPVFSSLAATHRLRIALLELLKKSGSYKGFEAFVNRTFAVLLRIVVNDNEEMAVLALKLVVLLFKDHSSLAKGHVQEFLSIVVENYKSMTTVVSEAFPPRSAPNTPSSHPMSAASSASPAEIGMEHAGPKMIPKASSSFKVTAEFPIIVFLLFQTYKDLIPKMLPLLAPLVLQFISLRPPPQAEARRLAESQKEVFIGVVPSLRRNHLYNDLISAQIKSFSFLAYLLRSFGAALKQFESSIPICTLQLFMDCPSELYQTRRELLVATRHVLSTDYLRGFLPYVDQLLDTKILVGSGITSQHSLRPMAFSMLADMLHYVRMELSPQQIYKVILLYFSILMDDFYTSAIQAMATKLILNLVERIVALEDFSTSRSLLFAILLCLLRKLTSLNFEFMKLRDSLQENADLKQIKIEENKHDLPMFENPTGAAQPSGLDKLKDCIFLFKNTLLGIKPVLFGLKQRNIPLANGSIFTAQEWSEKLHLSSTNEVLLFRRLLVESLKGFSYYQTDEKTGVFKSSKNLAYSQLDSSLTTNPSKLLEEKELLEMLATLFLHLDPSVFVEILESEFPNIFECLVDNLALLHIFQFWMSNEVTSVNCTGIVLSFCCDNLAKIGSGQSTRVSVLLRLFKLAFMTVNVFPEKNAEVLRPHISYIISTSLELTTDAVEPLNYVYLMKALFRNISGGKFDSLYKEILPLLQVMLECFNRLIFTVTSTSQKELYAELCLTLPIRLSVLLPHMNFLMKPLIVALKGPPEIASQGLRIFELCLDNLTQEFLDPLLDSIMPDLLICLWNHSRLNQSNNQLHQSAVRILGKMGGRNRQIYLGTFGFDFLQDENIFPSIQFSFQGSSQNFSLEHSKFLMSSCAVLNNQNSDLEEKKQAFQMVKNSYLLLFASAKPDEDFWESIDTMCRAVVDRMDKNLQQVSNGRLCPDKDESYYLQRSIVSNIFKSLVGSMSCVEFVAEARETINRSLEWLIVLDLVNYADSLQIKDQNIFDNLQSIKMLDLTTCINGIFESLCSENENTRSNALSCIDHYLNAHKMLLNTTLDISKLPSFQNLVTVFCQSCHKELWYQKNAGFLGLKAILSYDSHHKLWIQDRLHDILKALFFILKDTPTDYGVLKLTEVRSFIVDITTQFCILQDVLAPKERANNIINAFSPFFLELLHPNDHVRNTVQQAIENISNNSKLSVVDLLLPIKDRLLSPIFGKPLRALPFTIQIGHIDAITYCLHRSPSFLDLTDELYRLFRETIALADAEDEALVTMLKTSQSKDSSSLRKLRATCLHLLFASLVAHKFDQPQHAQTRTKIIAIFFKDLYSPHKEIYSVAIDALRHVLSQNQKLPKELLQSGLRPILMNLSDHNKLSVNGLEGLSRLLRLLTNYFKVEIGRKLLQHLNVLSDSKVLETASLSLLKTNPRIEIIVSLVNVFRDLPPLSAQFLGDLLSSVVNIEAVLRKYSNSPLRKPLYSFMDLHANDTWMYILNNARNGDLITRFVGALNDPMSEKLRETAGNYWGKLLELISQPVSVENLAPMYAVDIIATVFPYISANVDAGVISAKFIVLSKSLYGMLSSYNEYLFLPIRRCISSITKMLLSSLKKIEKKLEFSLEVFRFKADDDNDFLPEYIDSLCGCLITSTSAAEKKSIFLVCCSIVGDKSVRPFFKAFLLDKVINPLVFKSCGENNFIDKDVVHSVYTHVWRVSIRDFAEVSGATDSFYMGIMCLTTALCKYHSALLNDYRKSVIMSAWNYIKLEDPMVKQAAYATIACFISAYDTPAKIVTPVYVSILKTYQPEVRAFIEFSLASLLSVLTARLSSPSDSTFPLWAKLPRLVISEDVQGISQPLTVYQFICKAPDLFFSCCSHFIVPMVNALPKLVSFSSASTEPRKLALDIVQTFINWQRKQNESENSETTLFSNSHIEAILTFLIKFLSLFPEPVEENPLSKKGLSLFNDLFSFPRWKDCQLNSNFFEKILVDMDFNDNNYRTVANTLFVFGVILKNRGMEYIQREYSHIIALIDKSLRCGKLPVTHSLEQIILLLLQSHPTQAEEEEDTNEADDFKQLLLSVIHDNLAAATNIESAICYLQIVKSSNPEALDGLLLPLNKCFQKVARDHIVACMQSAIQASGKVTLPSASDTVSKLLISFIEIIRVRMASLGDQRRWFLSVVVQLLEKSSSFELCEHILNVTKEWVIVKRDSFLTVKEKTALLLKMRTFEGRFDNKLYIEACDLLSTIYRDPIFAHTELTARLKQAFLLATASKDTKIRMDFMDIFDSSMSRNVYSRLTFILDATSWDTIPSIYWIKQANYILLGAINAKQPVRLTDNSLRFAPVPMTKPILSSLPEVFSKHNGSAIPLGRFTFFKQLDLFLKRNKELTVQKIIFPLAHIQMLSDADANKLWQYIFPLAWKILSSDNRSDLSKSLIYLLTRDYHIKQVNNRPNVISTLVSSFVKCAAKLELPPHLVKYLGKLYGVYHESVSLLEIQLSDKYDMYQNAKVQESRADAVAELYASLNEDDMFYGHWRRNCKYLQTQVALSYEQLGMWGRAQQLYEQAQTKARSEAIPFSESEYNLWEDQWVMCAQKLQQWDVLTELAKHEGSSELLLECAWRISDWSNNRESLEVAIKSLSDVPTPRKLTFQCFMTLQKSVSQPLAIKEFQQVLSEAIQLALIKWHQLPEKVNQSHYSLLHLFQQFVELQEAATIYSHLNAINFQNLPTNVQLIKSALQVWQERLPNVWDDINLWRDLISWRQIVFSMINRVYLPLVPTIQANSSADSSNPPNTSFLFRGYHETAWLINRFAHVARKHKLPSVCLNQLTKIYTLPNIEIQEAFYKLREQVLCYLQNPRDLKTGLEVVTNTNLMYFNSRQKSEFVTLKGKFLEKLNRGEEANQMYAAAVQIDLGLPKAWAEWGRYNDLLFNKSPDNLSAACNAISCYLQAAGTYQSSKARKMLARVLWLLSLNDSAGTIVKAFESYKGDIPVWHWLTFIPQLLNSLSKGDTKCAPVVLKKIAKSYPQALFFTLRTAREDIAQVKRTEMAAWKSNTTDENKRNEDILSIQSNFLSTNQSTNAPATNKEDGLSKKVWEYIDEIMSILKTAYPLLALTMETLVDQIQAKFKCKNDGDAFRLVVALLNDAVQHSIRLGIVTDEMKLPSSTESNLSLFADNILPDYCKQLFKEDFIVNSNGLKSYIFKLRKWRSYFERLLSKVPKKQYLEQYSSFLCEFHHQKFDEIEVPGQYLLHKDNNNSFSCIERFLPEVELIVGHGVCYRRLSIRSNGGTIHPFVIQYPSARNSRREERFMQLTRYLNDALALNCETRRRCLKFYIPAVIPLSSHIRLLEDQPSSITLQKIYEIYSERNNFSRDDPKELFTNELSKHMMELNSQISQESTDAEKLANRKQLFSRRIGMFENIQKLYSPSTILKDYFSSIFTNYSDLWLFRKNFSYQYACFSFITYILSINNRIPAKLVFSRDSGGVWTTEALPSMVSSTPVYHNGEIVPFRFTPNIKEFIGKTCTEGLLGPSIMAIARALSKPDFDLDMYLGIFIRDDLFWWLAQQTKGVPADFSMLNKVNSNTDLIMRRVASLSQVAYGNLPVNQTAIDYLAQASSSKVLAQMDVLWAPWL

Substance | ratio to parent
Spt20 (S. pombe) (from UniProt O14174) RRKR>AAAA (HIT sequence … changed to …) | 0.51
Spt20 (S. pombe) (from UniProt O14174) FIEN>AAAA (HIT sequence … changed to …) | 0.02
